Data as given in paper PMC5900763, “Granule-stored MUC5B mucins are packed by the non-covalent formation of N-terminal head-to-head tetramers” (The Journal of Biological Chemistry, 2018).

Legend:
[1] = target: the molecule itself; experiment: SEC; Superose 6 3.2/300, 50 mM MES pH 6.2, 150 mM NaCl, no Ca2+
[2] = target: the molecule itself; experiment: SEC; Superose 6 3.2/300, 50 mM MES pH 6.2, 150 mM NaCl, 4 mM CaCl2, 0 h incubation, room temperature; covalent dimers to tetramer

B1: MUC5B N-terminal part (MUC5B-N), recombinant covalent dimer (domain or fragment, human, UniProt Q9HC84 26-1304, looked up)
chain: QGPVEPSWENAGHTMDGGAPTSSPTRRVSFVPPVTVFPSLSPLNPAHNGRVCSTWGDFHYKTFDGDVFRFPGLCNYVFSEHCRAAYEDFNVQLRRGLVGSRPVVTRVVIKAQGLVLEASNGSVLINGQREELPYSRTGLLVEQSGDYIKVSIRLVLTFLWNGEDSALLELDPKYANQTCGLCGDFNGLPAFNEFYAHNARLTPLQFGNLQKLDGPTEQCPDPLPLPAGNCTDEEGICHRTLLGPAFAECHALVDSTAYLAACAQDLCRCPTCPCATFVEYSRQCAHAGGQPRNWRCPELCPRTCPLNMQHQECGSPCTDTCSNPQRAQLCEDHCVDGCFCPPGTVLDDITHSGCLPLGQCPCTHGGRTYSPGTSFNTTCSSCTCSGGLWQCQDLPCPGTCSVQGGAHISTYDEKLYDLHGDCSYVLSKKCADSSFTVLAELRKCGLTDNENCLKAVTLSLDGGDTAIRVQADGGVFLNSIYTQLPLSAANITLFTPSSFFIVVQTGLGLQLLVQLVPLMQVFVRLDPAHQGQMCGLCGNFNQNQADDFTALSGVVEATGAAFANTWKAQAACANARNSFEDPCSLSVENENYARHWCSRLTDPNSAFSRCHSIINPKPFHSNCMFDTCNCERSEDCLCAALSSYVHACAAKGVQLSDWRDGVCTKYMQNCPKSQRYAYVVDACQPTCRGLSEADVTCSVSFVPVDGCTCPAGTFLNDAGACVPAQECPCYAHGTVLAPGEVVHDEGAVCSCTGGKLSCLGASLQKSTGCAAPMVYLDCSNSSAGTPGAECLRSCHTLDVGCFSTHCVSGCVCPPGLVSDGSGGCIAEEDCPCVHNEATYKPGETIRVDCNTCTCRNRRWECSHRLCLGTCVAYGDGHFITFDGDRYSFEGSCEYILAQDYCGDNTTHGTFRIVTENIPCGTTGTTCSKAIKLFVESYELILQEGTFKAVARGPGGDPPYKIRYMGIFLVIETHGMAVSWDRKTSVFIRLHQDYKGRVCGLCGNFDDNAINDFATRSRSVVGDALEFGNSWKLSPSCPDALAPKDPCTANPFRKSWAQKQCSILHGPTFAACRSQVDSTKYYEACVNDACACDSGGDCECFCTAVAAYAQACHDAGLCVSWRTPDTCPLFCDFYNPHGGCEWHYQPCGAPCLKTCRNPSGHCLVDLPGLEGCYPKCPPSQPFFNEDQMKCVAQCGCYDKDGNYYDVGARVPTAENCQSCNCTPSGIQCAHSLEACTCTYEDRTYSYQDVIYNTTDGLGACLIAICGSNGTIIRKAVACPG
notes: MUC5B mucin, human, N-terminal part with the von Willebrand D1, D2, D' and D3 domains, residues 26-1304 of GenBank NM_002458; Disulfide-bonded (covalent) dimer through D3; Two such dimers form the non-covalent tetramer (Dx2) at pH 6.2 with Ca2+; also called MUC5B N-terminal covalent dimer; MUC5B N terminus; not shown: His6, N-terminal, kept
[1]
  stoichiometry N: 2
[2]
  stoichiometry N: 4
